Consider 41 sequences from the nanobody polyreactivity screen of Harvey et al. (2022).

This series in a line: yeast display, Sf9 membrane polyspecificity reagent, FACS + sequencing; frameworks hold sequencing errors. A digest of the protocol:
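Synthetic nanobody libraries on Saccharomyces cerevisiae BJ5465 were galactose-induced for 36–48 hours, stained 1 hour at 4 °C with 10% biotinylated, detergent-solubilized Sf9 membrane reagent and enriched on streptavidin microbeads. FACS then separated cells into low and high (top ~1%) gates by anti-HA (expression) and streptavidin (reagent binding) fluorescence. Genes were colony-PCR amplified, MiSeq 2 × 250 sequenced and CDR-length filtered. A clone's polyreactivity label is that of its gate of origin.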
For the sequence “QVQLVESGGGLVQAGVSLRLSCAASGRIFGTNAMGWYRQAPGKERELVADITSGGSTNYADSVKGRFTISRDTAKNTVYLQMNSLKPEDTALYYCAADVIGDMRWYRDEYRGQGTQVTVSS”, the “polyreactivity (PSR sort gate)” value is recorded as “low polyreactivity”.

With “QVQLVESGGGLVQAGVSLRLSCAASGRIFYRYAMGWYRPPPVKERELVAGITSGGSTYYADSVKGRFTISRDNAKNTVYLQMMSLKPEDTAVYYCAAVSYRSRTHRYPATFAYGSWGQGTQETVSS”, the “polyreactivity (PSR sort gate)” value is on record as “high polyreactivity”.

For “QVQLVESGGGLVQAGVSLRLSCAASGRTFYVNAMGWYRQAPGKERELVAAISYSDGITYYADSVKARFTISRDNAKNTVYLQMNSLKPEDTAVYYCAAEGYHYYSQRAGVDYWGQGTQVTVSS”, the “polyreactivity (PSR sort gate)” value is recorded as “high polyreactivity”.

Regarding “QVQLVESGGGLVQAGVSLRLSCAASGSIFRWNAMGWYRQAPGKERELVAAITGSGGSTYYADSVKGRFTISRDNAKNTVYLQMNSLKPEDTAVYYCAAKSPRILLDYWGQGTQVTVSS”, the “polyreactivity (PSR sort gate)” value is listed as “low polyreactivity”.

For “QVQLVESGGGLVQAGVSLRLSCAASGSIFSWNAMGWYRQAPGKERELVATITWNGGRTYYADSVKGRFTISRDNAKNTVYLQMNSLKPEDTAVYYCAARYYVYWTYPYRVLSYYYWGQGTQVTVSS”, the “polyreactivity (PSR sort gate)” value is listed as “high polyreactivity”.

For the sequence “QVQLVESGGGLVQAGVSLRLSCAASGSIFYEYAMGWYRQAPGKEREFVAAISSSGGSTYYADSEKGRFTISRDNAKNSVYLQMNSLKPEDTAAYYCNAQVGGVSFEYDYWGQGTQVTVSS”, the “polyreactivity (PSR sort gate)” value was “low polyreactivity”.

Regarding “QVQLVESGGGLVQAGVSLRLSCAASGSLFSANAMGWYRQAPGKERELVASITGDGSTNYADSVKGRFTISRDNAMNTVYLQMNSLKPEDTAVYYCAADIGSWYDYWGQGTQVTVSS”, the “polyreactivity (PSR sort gate)” value is on record as “low polyreactivity”.

Turning to “QVQLVESGGGLVQAGVSLRLSCAASGTFYYAMGWYRQAPGKEREFVAAISWRGGTTYYADSVKGRFTISRDNAKNTVYLQMNSLKPEDTAVYYCATAPYVTSRRYGPYEYWGQGTQVTVSS”, the “polyreactivity (PSR sort gate)” value is on record as “low polyreactivity”.

For the sequence “QVQLVESGGGLVQAGVSLRLSCAGSGSIFRSYTMGWYRQAPGKERELVAAISYSGGRTYYADSVMGRFTISRDNAKNTVYLQLNSLKPEDTAVYYCARRYYVTGCVGYDYWGQGTQVTVSS”, the “polyreactivity (PSR sort gate)” value was “high polyreactivity”.

Take “QVQLVESGGGLVQAGVSLRLSCPASGRTFGWYAMGWYRQAPGTERELVAAITSGTSTYYADSVKGRFTISRDNAKNTVYLQMNSLKPEDTAVYYCAVDRGISVGYTRFDYWGQGTQVSVSS”: the “polyreactivity (PSR sort gate)” value is “low polyreactivity”.

For “QVQLVESGGGLVQAGVSLRLSCSASGGTFPQYAMAWYRHAPGKEREFVADITSRGGTTYYADSVKGRFTISRDNAKNTVFLQMNRLKPEDTAVYFCAADNPADWWGLDYWGQGTQVTVSS”, the “polyreactivity (PSR sort gate)” value was “low polyreactivity”.

Regarding “QVQLVESGGGLVQAGVSLRLSWAASGRTGVNAMGWYRQAPGKERGLVAAINTSVGRTYYADSVKGRFTISRDNAKNPVYLQMNCLKPEDTAVYYCNTDRLGAARYDDWGQGTQVTVSS”, the “polyreactivity (PSR sort gate)” value is “low polyreactivity”.

For the sequence “QVQLVESGGGLVQAGWSLRLSCAASGRTFTHAMGWYRQAPGKERELVADISSGGSPNYADSVKGRFTISRDNAKNSVYLQMNSLKREDTAVSYCAAVSGSLYGYSVDYWGQGTQVTGSS”, the “polyreactivity (PSR sort gate)” value is recorded as “low polyreactivity”.

With “QVQLVESGGGLVQARGILRLSCAASGIIFYTYAMGLYRQAPGKERELVAAITARTANTYYADSVKGRFTISRDNAKNTVYLQMNSLKPEDTAVYYCAAAIYSYRTPYYYWGQGTQVTVSS”, the “polyreactivity (PSR sort gate)” value is on record as “high polyreactivity”.

With “QVQLVESGGGLVQARGSLRLICAASGFTFYRYVMGWYRQAPGKVRELVAAITGRGGSTYYADSVKGRFTISRDNAKNTVYLQMNSRKPEDTAVYYCAARYVTGTLYLAPYEYWGQGTQVTLSS”, the “polyreactivity (PSR sort gate)” value is “low polyreactivity”.

Consider “QVQLVESGGGLVQARGSLRLICAASGSTFGVHAMGWSRQAPGKERELVAAITWRGGSTYYADSLKGRFTISRDTAKNTVYLQMNSLKPEDTAVYYCAADPRYYSYEYWGEGTQVTVSS”, for which the “polyreactivity (PSR sort gate)” value is “high polyreactivity”.

As to “QVQLVESGGGLVQARGSLRLSCAASGFIFGYYAKGWYRQAPGKERELVAAISPSGGRTYYADSVKGRFTISRDNAKNTVYLQMNILKPEDTAVYYCAAEYAYSLDPVEDYWGQGTLVTVSS”, the “polyreactivity (PSR sort gate)” value was “high polyreactivity”.

On to “QVQLVESGGGLVQARGSLRLSCAASGIILYRNGMGWYRQAPGKERELVAAISWSTGSTYYADSVKGRFTISRDNAKNTVYLQMNSLKPEDTAVYYCATDYVGYSFGMYYWGQGTQVTVSS”, for which the “polyreactivity (PSR sort gate)” value was “low polyreactivity”.

As to “QVQLVESGGGLVQARGSLRLSCAASGITFGRNTMGWYRQAPGKERELVAAIDSGGNTYADSVKGRFTISRDNAKNTVYLQMNSLKPDDTAVYYCAVDGGEFSSYGYWGQGTQVTVSS”, the “polyreactivity (PSR sort gate)” value is recorded as “low polyreactivity”.

Consider “QVQLVESGGGLVQARGSLRLSCAASGLTSRYYAMGWYRQAPGKERELVAAISSRGGRTYYADSVKGPFTISRDNAKNTVYLQMNSLQPEDTAVYYCYAAAGAYSFLSTYNRGEEYWGQGTQVTVSS”, for which the “polyreactivity (PSR sort gate)” value is on record as “high polyreactivity”.

Regarding “QVQLVESGGGLVQARGSLRLSCAASGRIFNTYAMGRYIQAPGKERELVAAITSSGGSTYYADSVKGRFTISRDNAKNTVYFQMNSLKPEDTAVYYCNAGSLHRRYYYEGDYWGQGTQVTVSS”, the “polyreactivity (PSR sort gate)” value is “high polyreactivity”.

For “QVQLVESGGGLVQARGSLRLSCAASGRIFRYYAMGSYRQAPGKERELVASITSGARTSYADSVKGRFTISRDIAKNTVYLQMNSLKPEDTAVYYCAAGGRARTYYYWGQGTQVTVSS”, the “polyreactivity (PSR sort gate)” value was “high polyreactivity”.

“QVQLVESGGGLVQARGSLRLSCAASGRTISYNVMGWYRQAPGKERELVAAITWTGGSTYYADSVKGRFTISRDNAKNTVYLLMNSLKPEDTAVYYCNAAKPYAYWVPNDYWGQGTQVTVSS”: the “polyreactivity (PSR sort gate)” value is given as “low polyreactivity”.

On to “QVQLVESGGGLVQARGSLRLSCAASGSIFGYNVMGWYRQAPGIERELVAAITVNGGRTYYADSVKGRFTISRDNAKNTVYLQMNSLIPEDTAVDDCAARVTGTQRSGYYWGQGTQVTVSS”, for which the “polyreactivity (PSR sort gate)” value is listed as “high polyreactivity”.

Turning to “QVQLVESGGGLVQARGSLRLSCAASGSIFNLYAMGWYRQAPGKEREFVASISYSGGSTYYADSVKGRFTISRDNAKNTVYLQINSLKPEDTAVYYCNARLEVYGQRYDYWGQGTQVTVSS”, the “polyreactivity (PSR sort gate)” value is recorded as “low polyreactivity”.

Regarding “QVQLVESGGGLVQARGSLRLSCAASGSIFSANAMGWYRQAPVKERELVAAISSSGNTNYADSVKGRFTISRDNAKNTLYLQMNSLKPEDTAVYYCAVELKQVTPGLGYITLDYWGQGTQVTVSS”, the “polyreactivity (PSR sort gate)” value was “low polyreactivity”.

As for “QVQLVESGGGLVQARGSLRLSCAASGSIFYGYALGWYRQAPGKERELVAAITSSGTRTYYADSVKGRFTISRDNAKNTVYLQMNSLKPEDTAVYYCAADGPGYQYDFWGQGTQVTVSS”, the “polyreactivity (PSR sort gate)” value is “high polyreactivity”.

For “QVQLVESGGGLVQARGSLRLSCAASGSTFLFYAMGWYRQPPGKERELVAAISRGDSTYYAESVKGRFTISRDIAKNTVYLQMNSLKPEDTAVYYCAAGYNHLYVYRMYYWGQGTQVTVSS”, the “polyreactivity (PSR sort gate)” value is recorded as “high polyreactivity”.

Consider “QVQLVESGGGLVQARGSLRLSCAASGSTFQYTMGCYRQAPRTERELVAAITSTGGSTYYADSVKGRFTISRDNAKNTVYLQRNSLKAEDTAVYYWNADYFGGGDYWGQGTQVTVSS”, for which the “polyreactivity (PSR sort gate)” value is “low polyreactivity”.

With “QVQLVESGGGLVQARGSLRLSCAASGSTFSYYTMGWYRQAPGKERELVATISRRGASTYYADSVKGRFTISRDNAKNTVYLQMHSLKPEDTAVYYCAKSYYYGRSATRPEYDYWGQGTQVTVSS”, the “polyreactivity (PSR sort gate)” value is “high polyreactivity”.

As for “QVQLVESGGGLVQARGSLRLSCAASGSTILYYAMGWYRQAPGKERELVAVIRLDAGRTYYADSVKGRFTISRDNAKNTVYFQMNSLKPEDTAVYYCAAKGCFRTYGGGNYWGQGTQVTVSS”, the “polyreactivity (PSR sort gate)” value is “high polyreactivity”.

Regarding “QVQLVESGGGLVQARGSLRLSCAASVSTFGGNAMGWYRQAPGKERQLVAAISCIGGGTYYADSVKGRFTISRDNAKNTVYLQMKSLKPEYTAVYYCAAKIFIRVHYYSYRMYYWGQGTQLTVSS”, the “polyreactivity (PSR sort gate)” value is “low polyreactivity”.

As to “QVQLVESGGGLVQARGSLRLSCAATGSTLSFYAMVWYRQAPGKERELVAAISYSTGTTYYADSVKGRFTISRDNAKNTVYLQMNSLKPEDTAVYYCNAVGTGGYSSEYGYWGQGTQVTVSS”, the “polyreactivity (PSR sort gate)” value is “high polyreactivity”.

Turning to “QVQLVESGGGLVQARGSLRLSCEASGFTFGSNTMACYRQAPGKERELVAAITRRGGSTNYADSVKGRFTISRDNAKNTVYLQMNSLKPDDTAVYYCARDYRSYTVSYDTSYDYWGQGTQVTVSS”, the “polyreactivity (PSR sort gate)” value is “high polyreactivity”.

Take “QVQLVESGGGLVQARGSLRLSSAASGSTFVVNAMGWYRQAPGKERELVAAITQSGGSTFYADSVKGRFTISRVNAKNTVYLQMNSLQAEDTAVYYWGQGTQVTVSS”: the “polyreactivity (PSR sort gate)” value was “low polyreactivity”.

Consider “QVQLVESGGGLVQARGSLRLSSGASGSTFATDYAMGWYRQAPGKERELDAAIAYTSASTYYADSVKGRITISRDNAKNPVYLQMNTLKPEDTAVYYCAADYGGTREYYWGQGTQVTVSS”, for which the “polyreactivity (PSR sort gate)” value is reported as “low polyreactivity”.

For “QVQLVESGGGLVQARGSRRLSCAASGFIFRFNAMGWYRQAPGKERELVASITGSGGITYADSVKRRFTMSRDNAKNTVFLPMHSLKPDDTAVYYSAARGDGYQSGWVADWAPFYYWRQGTQVTVSS”, the “polyreactivity (PSR sort gate)” value is “high polyreactivity”.

Regarding “QVQLVESGGGLVQARRSLRLSCAASGFTVKRYAMGWYRPEPGKEREFVAAITRGGGSTYYADYVKGRFTISRDNAKNTVYLQMNSLKPEDTAVYYCNARSRSYVPYYYWGQGTQVTVSS”, the “polyreactivity (PSR sort gate)” value is listed as “high polyreactivity”.

For the sequence “QVQLVESGGGLVQARRSLRLSCAASGNIFWRNAMGWYRQAPGKERELVAAISRRAVSTYYADSVKGRFTISRDNAKNTVYLQMNSLKPEDTAVYYCAARLGGENDYWGQGTQVTVSS”, the “polyreactivity (PSR sort gate)” value was “high polyreactivity”.

Regarding “QVQLVESGGGLVQAVASLRLSCAASGRIFGPYAMGWDRQAPGKERELVASITRSGGRTYYADSVKGRFTISRDYAKNTVYLQMNSLKPDDTAVYYCAAGGFSKSDYYWGQGTQVTVSS”, the “polyreactivity (PSR sort gate)” value was “high polyreactivity”.

Consider “QVQLVESGGGLVQAVGRLRLSCAASGGIFSINAMGWYRQAPGKERELVAAIRWNSGRTYYADSVKGRFTISRDNAKNTVYLQMNSLKPEDTAVYYCAVRDYISWEDYYWGQGTQVTVSS”, for which the “polyreactivity (PSR sort gate)” value is reported as “high polyreactivity”.
